Data as given in the supplement of paper PMC5998384.

What was measured:
HeLa Kyoto [1] = assay: solubility in G1/S (NP-40 vs SDS abundance) (log2 ratio); higher = more soluble; details: cell cycle stage: G1/S
HeLa Kyoto [2] = assay: solubility change mitosis vs G1/S (difference of NP-40 vs SDS log2 ratios) (log2 ratio difference); higher = more soluble in mitosis
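For solubility change mitosis vs G1/S (difference of NP-40 vs SDS log2 ratios) in this document: synchronized HeLa Kyoto cells (double thymidine block for G1/S, nocodazole release for mitosis), protein amounts in NP-40 versus SDS lysates quantified by mass spectrometry, three biological replicates.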
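For solubility in G1/S (NP-40 vs SDS abundance) in this document: HeLa Kyoto cells arrested at G1/S by double thymidine block, proteins quantified by TMT10plex mass spectrometry in mild NP-40 versus SDS extracts, three biological replicates.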

Sequence | solubility in G1/S (log2) (HeLa Kyoto [1]) | solubility change mitosis (log2) (HeLa Kyoto [2])
MAPGSRGERSSFRSRRGPGVPSPQPDVTMLSRLLKEHQAKQNERKELQEKRRREAITAATCLTEALVDHLNVGVAQAYMNQRKLDHEVKTLQVQAAQFAKQTGQWIGMVENFNQALKEIGDVENWARSIELDMRTIATALEYVYKGQLQSAPS [BLOC1S1] | 0.51 | 0.133
MAPVSGSRSPDREASGSGGRRRSSSKSPKPSKSARSPRGRRSRSHSCSRSGDRNGLTHQLGGLSQGSRNQSYRSRSRSRSRERPSAPRGIPFASASSSVYYGSYSRPYGSDKPWPSLLDKEREESLRQKRLSERERIGELGAPEVWGLSPKNPEPDSDEHTPVEDEEPKKSTTSASTSEEEKKKKSSRSKERSKKRRKKKSSKRKHKKYSEDSDSDSDSETDSSDEDNKRRAKKAKKKEKKKKHRSKKYKKKRSKKSRKESSDSSSKESQEEFLENPWKDRTKAEEPSDLIGPEAPKTLTSQDDKPLNYGHALLPGEGAAMAEYVKAGKRIPRRGEIGLTSEEIASFECSGYVMSGSRHRRMEAVRLRKENQIYSADEKRALASFNQEERRKRENKILASFREMVYRKTKGKDDK [NKAP] | -0.301 | 0.107
MAQEKMELDLEPDTSYGGTLRRSSSAPLIHGLSDLSQVFQPYTLRTRRNSTTIMSRHSLEEGLDMVNRETAHEREMQTAMQISQSWDESLSLSDSDFDKPEKLYSPKRIDFTPVSPAPSPTRGFGKMFVSSSGLPPSPVPSPRRFSRRSQSPVKCIRPSVLGPLKRKGEMETESQPKRLFQGTTNMLSPDAAQLSDLSSCSDILDGSSSSSGLSSDPLAKGSATAESPVACSNSCSSFILMDDLSPK [FAM122B] | 1.18 | -0.79
MARRSQSSSQGDNPLAPGYLPPHYKEYYRLAVDALAEGGSEAYSRFLATEGAPDFLCPEELEHVSRHLRPPQYVTREPPEGSLLDVDMDGSSGTYWPVNSDQAVPELDLGWPLTFGFQGTEVTTLVQPPPPDSPSIKDEARRMIRSAQQVVAVVMDMFTDVDLLSEVLEAAARRVPVYILLDEMNAQHFLDMADKCRVNLQHVDFLRVRTVAGPTYYCRTGKSFKGHVKEKFLLVDCAVVMSGSYSFMWSFEKIHRSLAHVFQGELVSSFDEEFRILFAQSEPLVPSAAALARMDAYALAPYAGAGPLVGVPGVGAPTPFSFPKRAHLLFPPPREEGLGFPSFLDPDRHFLSAFRREEPPRMPGGALEPHAGLRPLSRRLEAEAGPAGELAGARGFFQARHLEMDAFKRHSFATEGAGAVENFAAARQVSRQTFLSHGDDFRFQTSHFHRDQLYQQQYQWDPQLTPARPQGLFEKLRGGRAGFADPDDFTLGAGPRFPELGPDGHQRLDYVPSSASREVRHGSDPAFAPGPRGLEPSGAPRPNLTQRFPCQAAARPGPDPAPEAEPERRGGPEGRAGLRRWRLASYLSGCHGEDGGDDGLPAPMEAEAYEDDVLAPGGRAPAGDLLPSAFRVPAAFPTKVPVPGPGSGGNGPEREGPEEPGLAKQDSFRSRLNPLVQRSSRLRSSLIFSTSQAEGAAGAAAATEKVQLLHKEQTVSETLGPGGEAVRSAASTKVAELLEKYKGPARDPGGGAGAITVASHSKAVVSQAWREEVAAPGAVGGERRSLESCLLDLRDSFAQQLHQEAERQPGAASLTAAQLLDTLGRSGSDRLPSRFLSAQSHSTSPQGLDSPLPLEGSGAHQVLHNESKGSPTSAYPERKGSPTPGFSTRRGSPTTGFIEQKGSPTSAYPERRGSPVPPVPERRSSPVPPVPERRGSLTLTISGESPKAGPAEEGPSGPMEVLRKGSLRLRQLLSPKGERRMEDEGGFPVPQENGQPESPRRLSLGQGDSTEAATEERGPRARLSSATANALYSSNLRDDTKAILEQISAHGQKHRAVPAPSPGPTHNSPELGRPPAAGVLAPDMSDKDKCSAIFRSDSLGTQGRLSRTLPASAEERDRLLRRMESMRKEKRVYSRFEVFCKKEEASSPGAGEGPAEEGTRDSKVGKFVPKILGTFKSKK [FAM83H] | -0.733 | -0.0789
MASATAPAAAVPTLASPLEQLRHLAEELRLLLPRVRVGEAQETTEEFNREMFWRRLNEAAVTVSREATTLTIVFSQLPLPSPQETQKFCEQVHAAIKAFIAVYYLLPKDQGITLRKLVRGATLDIVDGMAQLMEVLSVTPTQSPENNDLISYNSVWVACQQMPQIPRDNKAAALLMLTKNVDFVKDAHEEMEQAVEECDPYSGLLNDTEENNSDNHNHEDDVLGFPSNQDLYWSEDDQELIIPCLALVRASKACLKKIRMLVAENGKKDQVAQLDDIVDISDEISPSVDDLALSIYPPMCHLTVRINSAKLVSVLKKALEITKASHVTPQPEDSWIPLLINAIDHCMNRIKELTQSELEL [CCNDBP1] | 0.509 | -0.176
MASDGARKQFWKRSNSKLPGSIQHVYGAQHPPFDPLLHGTLLRSTAKMPTTPVKAKRVSTFQEFESNTSDAWDAGEDDDELLAMAAESLNSEVVMETANRVLRNHSQRQGRPTLQEGPGLQQKPRPEAEPPSPPSGDLRLVKSVSESHTSCPAESASDAAPLQRSQSLPHSATVTLGGTSDPSTLSSSALSEREASRLDKFKQLLAGPNTDLEELRRLSWSGIPKPVRPMTWKLLSGYLPANVDRRPATLQRKQKEYFAFIEHYYDSRNDEVHQDTYRQIHIDIPRMSPEALILQPKVTEIFERILFIWAIRHPASGYVQGINDLVTPFFVVFICEYIEAEEVDTVDVSGVPAEVLCNIEADTYWCMSKLLDGIQDNYTFAQPGIQMKVKMLEELVSRIDEQVHRHLDQHEVRYLQFAFRWMNNLLMREVPLRCTIRLWDTYQSEPDGFSHFHLYVCAAFLVRWRKEILEEKDFQELLLFLQNLPTAHWDDEDISLLLAEAYRLKFAFADAPNHYKK [TBC1D22A] | 0.31 | -0.253
MASESSPLLAYRLLGEEGVALPANGAGGPGGASARKLSTFLGVVVPTVLSMFSIVVFLRIGFVVGHAGLLQALAMLLVAYFILALTVLSVCAIATNGAVQGGGAYFMISRTLGPEVGGSIGLMFYLANVCGCAVSLLGLVESVLDVFGADATGPSGLRVLPQGYGWNLLYGSLLLGLVGGVCTLGAGLYARASFLTFLLVSGSLASVLISFVAVGPRDIRLTPRPGPNGSSLPPRFGHFTGFNSSTLKDNLGAGYAEDYTTGAVMNFASVFAVLFNGCTGIMAGANMSGELKDPSRAIPLGTIVAVAYTFFVYVLLFFLSSFTCDRTLLQEDYGFFRAISLWPPLVLIGIYATALSASMSSLIGASRILHALARDDLFGVILAPAKVVSRGGNPWAAVLYSWGLVQLVLLAGKLNTLAAVVTVFYLVAYAAVDLSCLSLEWASAPNFRPTFSLFSWHTCLLGVASCLLMMFLISPGAAGGSLLLMGLLAALLTARGGPSSWGYVSQALLFHQVRKYLLRLDVRKDHVKFWRPQLLLLVGNPRGALPLLRLANQLKKGGLYVLGHVTLGDLDSLPSDPVQPQYGAWLSLVDRAQVKAFVDLTLSPSVRQGAQHLLRISGLGGMKPNTLVLGFYDDAPPQDHFLTDPAFSEPADSTREGSSPALSTLFPPPRAPGSPRALNPQDYVATVADALKMNKNVVLARASGALPPERLSRGSGGTSQLHHVDVWPLNLLRPRGGPGYVDVCGLFLLQMATILGMVPAWHSARLRIFLCLGPREAPGAAEGRLRALLSQLRIRAEVQEVVWGEGAGAGEPEAEEEGDFVNSGRGDAEAEALARSANALVRAQQGRGTGGGPGGPEGGDAEGPITALTFLYLPRPPADPARYPRYLALLETLTRDLGPTLLVHGVTPVTCTDL [SLC12A9] | -0.0513 | 0.119
MASGVGAAFEELPHDGTCDECEPDEAPGAEEVCRECGFCYCRRHAEAHRQKFLSHHLAEYVHGSQAWTPPADGEGAGKEEAEVKVEQEREIESEAGEESESEEESESEEESETEEESEDESDEESEEDSEEEMEDEQESEAEEDNQEEGESEAEGETEAESEFDPEIEMEAERVAKRKCPDHGLDLSTYCQEDRQLICVLCPVIGAHQGHQLSTLDEAFEELRSKDSGGLKAAMIELVERLKFKSSDPKVTRDQMKMFIQQEFKKVQKVIADEEQKALHLVDIQEAMATAHVTEILADIQSHMDRLMTQMAQAKEQLDTSNESAEPKAEGDEEGPSGASEEEDT [TRIM44] | -0.118 | -0.202
MASLQRKGLQARILTSEEEEKLKRDQTLVSDFKQQKLEQEAQKNWDLFYKRNSTNFFKDRHWTTREFEELRSCREFEDQKLTMLEAGCGVGNCLFPLLEEDPNIFAYACDFSPRAIEYVKQNPLYDTERCKVFQCDLTKDDLLDHVPPESVDVVMLIFVLSAVHPDKMHLVLQNIYKVLKPGKSVLFRDYGLYDHAMLRFKASSKLGENFYVRQDGTRSYFFTDDFLAQLFMDTGYEEVVNEYVFRETVNKKEGLCVPRVFLQSKFLKPPKNPSPVVLGLDPKS [METTL6] | 0.0543 | 0.018
MASNSSSCPTPGGGHLNGYPVPPYAFFFPPMLGGLSPPGALTTLQHQLPVSGYSTPSPATIETQSSSSEEIVPSPPSPPPLPRIYKPCFVCQDKSSGYHYGVSACEGCKGFFRRSIQKNMVYTCHRDKNCIINKVTRNRCQYCRLQKCFEVGMSKESVRNDRNKKKKEVPKPECSESYTLTPEVGELIEKVRKAHQETFPALCQLGKYTTNNSSEQRVSLDIDLWDKFSELSTKCIIKTVEFAKQLPGFTTLTIADQITLLKAACLDILILRICTRYTPEQDTMTFSDGLTLNRTQMHNAGFGPLTDLVFAFANQLLPLEMDDAETGLLSAICLICGDRQDLEQPDRVDMLQEPLLEALKVYVRKRRPSRPHMFPKMLMKITDLRSISAKGAERVITLKMEIPGSMPPLIQEMLENSEGLDTLSGQPGGGGRDGGGLAPPPGSCSPSLSPSSNRSSPATHSP [RARA] | 0.18 | -0.153
MASPSKAVIVPGNGGGDVTTHGWYGWVKKELEKIPGFQCLAKNMPDPITARESIWLPFMETELHCDEKTIIIGHSSGAIAAMRYAETHRVYAIVLVSAYTSDLGDENERASGYFTRPWQWEKIKANCPYIVQFGSTDDPFLPWKEQQEVADRLETKLHKFTDCGHFQNTEFHELITVVKSLLKVPA [RBBP9] | 0.42 | 0.00166
